Experimental data: the supplement of paper PMC9876800

Tested on: peptide library, one residue held at a place counted from the S/T acceptor
Test: relative phosphorylation of the sub-library (ratio to the mean residue at this position); higher = residue favoured
Conditions: human
Summary of the method: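 Purified recombinant kinases were reacted in 384-well plates with biotinylated degenerate peptide sub-libraries, each having one residue fixed at one position around a central Ser/Thr. The reaction mix contained 50 μM peptide plus 50 μM ATP spiked with γ-32P-ATP and ran for 90 min under kinase-specific conditions. Relative sub-library phosphorylation, taken from densitometry of phosphorimaged streptavidin membrane spots, is a ratio to the mean residue at that position.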

STK25, construct: Full length, sequence (O00506 whole entry, looked up): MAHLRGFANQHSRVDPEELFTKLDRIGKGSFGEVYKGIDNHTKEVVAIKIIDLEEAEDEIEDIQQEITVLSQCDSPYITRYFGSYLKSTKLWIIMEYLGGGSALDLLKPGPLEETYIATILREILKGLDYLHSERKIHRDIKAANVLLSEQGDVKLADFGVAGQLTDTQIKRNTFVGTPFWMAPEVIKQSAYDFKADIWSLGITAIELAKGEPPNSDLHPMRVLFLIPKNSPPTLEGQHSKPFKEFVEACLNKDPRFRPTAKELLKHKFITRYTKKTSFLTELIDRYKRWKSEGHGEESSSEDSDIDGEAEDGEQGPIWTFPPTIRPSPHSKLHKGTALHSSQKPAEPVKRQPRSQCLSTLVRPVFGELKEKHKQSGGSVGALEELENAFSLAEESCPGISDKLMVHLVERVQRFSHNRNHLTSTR
ULK1, construct: aa1-649, sequence (O75385 1-649, looked up): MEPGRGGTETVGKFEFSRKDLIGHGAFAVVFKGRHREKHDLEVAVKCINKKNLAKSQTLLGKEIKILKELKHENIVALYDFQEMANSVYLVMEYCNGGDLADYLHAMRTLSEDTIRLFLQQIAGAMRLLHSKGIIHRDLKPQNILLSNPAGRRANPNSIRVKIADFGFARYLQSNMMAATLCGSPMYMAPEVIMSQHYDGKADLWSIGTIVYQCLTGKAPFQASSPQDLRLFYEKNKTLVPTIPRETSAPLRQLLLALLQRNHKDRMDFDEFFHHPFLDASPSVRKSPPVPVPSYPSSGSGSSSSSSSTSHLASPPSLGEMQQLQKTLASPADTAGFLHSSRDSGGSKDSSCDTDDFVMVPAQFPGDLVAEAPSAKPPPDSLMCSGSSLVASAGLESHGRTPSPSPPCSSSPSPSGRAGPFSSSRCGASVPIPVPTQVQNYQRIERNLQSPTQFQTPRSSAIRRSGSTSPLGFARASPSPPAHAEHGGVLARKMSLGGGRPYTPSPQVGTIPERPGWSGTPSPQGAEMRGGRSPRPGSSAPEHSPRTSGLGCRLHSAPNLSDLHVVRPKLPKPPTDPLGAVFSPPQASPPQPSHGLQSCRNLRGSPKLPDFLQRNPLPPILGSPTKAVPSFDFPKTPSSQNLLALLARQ

STK25, construct: Full length (from UniProt O00506)
relative phosphorylation
Conditions	at +1	at +2	at +3	at +4	at -1	at -2	at -3	at -4	at -5
A fixed	0.561	0.853	0.857	0.981	0.996	1.07	0.986	1	1.24
D fixed	0.151	0.326	0.447	0.515	0.772	0.464	0.671	0.752	0.774
E fixed	0.166	0.195	0.404	0.454	0.538	0.398	0.604	0.865	0.682
F fixed	1.28	0.564	1.01	0.718	0.756	1.19	0.875	0.975	0.922
G fixed	0.443	1.13	1.17	1.12	1.98	1.26	1.27	1.1	1.21
H fixed	0.884	1.24	1.07	1.2	1.3	1.43	1.24	1.11	1.15
I fixed	1.87	0.572	0.895	0.845	0.453	0.86	0.777	0.775	0.801
K fixed	0.669	2.4	1.64	2.01	1.23	1.04	1.31	1.28	1.52
L fixed	1.56	0.486	0.865	0.743	0.901	0.791	0.844	0.8	0.758
M fixed	1.89	0.735	0.926	0.822	1.14	0.879	0.974	0.99	0.899
N fixed	0.474	1.08	0.985	0.919	1.26	1.01	1.13	1.03	0.902
P fixed	0.175	0.616	0.787	1.11	0.599	0.693	0.876	0.871	1
Q fixed	0.683	0.785	0.819	0.856	0.795	0.773	0.865	0.868	0.846
R fixed	0.947	3.75	2.26	2.19	1.66	1.25	1.38	1.3	1.38
V fixed	1.59	0.626	0.829	0.718	0.462	0.78	0.711	0.849	0.848
W fixed	2.17	0.772	0.979	0.943	0.862	1.33	1.26	1.25	1.02
Y fixed	1.48	0.872	1.06	0.852	1.3	1.79	1.23	1.18	1.05
pThr fixed	0.459	0.376	0.534	0.435	0.45	0.615	0.774	0.98	0.918
pTyr fixed	0.327	0.223	0.456	0.372	0.866	0.691	0.858	0.837	0.866

ULK1, construct: aa1-649 (from UniProt O75385)
relative phosphorylation
Conditions	at +1	at +2	at +3	at +4	at -1	at -2	at -3	at -4	at -5
A fixed	0.56	0.645	0.867	0.899	1.17	1.22	0.964	1.16	1.15
D fixed	0.265	0.292	0.853	0.841	1.13	1.22	0.659	1.21	1.61
E fixed	0.424	0.307	0.834	0.944	1.19	1.19	0.572	0.905	1.02
F fixed	1.74	1.12	0.842	0.803	0.477	1.08	1.11	0.716	0.797
G fixed	0.359	0.409	1.04	1.11	0.79	0.916	0.884	1.3	1.18
H fixed	0.854	1.87	1.13	1.19	0.857	1.14	0.682	1.01	1.15
I fixed	1.53	1.26	0.869	0.738	0.543	0.753	0.674	0.678	0.572
K fixed	0.615	0.849	1.48	1.32	1.83	0.608	0.404	0.832	1.09
L fixed	1.13	0.94	0.901	0.836	0.723	0.799	1.56	0.821	0.733
M fixed	2.01	1.23	0.906	0.848	1.19	1.09	4.03	1.07	0.786
N fixed	0.563	0.816	0.891	1.01	1.09	0.947	1.1	1.2	1.42
P fixed	0.234	0.211	0.927	1.32	0.397	0.439	0.698	1.27	0.811
Q fixed	1.26	0.753	1.24	1.17	1.52	0.991	0.837	1.02	0.957
R fixed	0.725	0.989	1.2	0.993	1.57	0.545	0.447	0.844	1.1
V fixed	1.47	1.02	0.866	0.77	0.903	0.913	0.574	0.659	0.661
W fixed	1.39	1.65	1.1	1.2	0.82	1.93	1.2	1.6	1.18
Y fixed	1.87	2.64	1.04	1	0.794	1.22	0.599	0.716	0.786
pThr fixed	0.885	0.413	0.718	1.13	0.568	0.67	0.704	0.846	0.762
pTyr fixed	1.14	0.618	0.648	0.615	0.99	1.12	0.642	0.672	0.664
